# Laboratory results taken from article PMC6222646, “HIV-1 Integrase-Targeted Short Peptides Derived from a Viral Protein R Sequence”.
# Assays:
# [1] = molecular target: Vpr-derived peptide 1a, Vpr(69-75) (HIV-1, UniProt Q73369); experiment: fluorescence anisotropy; 7.5 mM MgCl2; peptide up to 37 µM, no IN; IN-activity buffer: 50 mM MOPS pH 7.2, 7.5 mM MgCl2, 14 mM 2-mercaptoethanol; 10 nM DNA, +/- 400 nM IN; 5 min room temperature preincubation, anisotropy read every 30 s for 30 min; settings: label: AlexaFluor 488 at 5' end of 21T; blunt
# [2] = molecular target: HIV-1 integrase (IN) (HIV-1 (strain ), UniProt P12497 1148-1435); experiment: fluorescence anisotropy; IN-activity buffer: 50 mM MOPS pH 7.2, 7.5 mM MgCl2, 14 mM 2-mercaptoethanol; 10 nM DNA, +/- 400 nM IN; 5 min room temperature preincubation, anisotropy read every 30 s for 30 min; settings: protein: recombinant; tags: His6 or FLAG constructs described; chain copies: 4; label: AlexaFluor 488 at 5' end of 21T; blunt
# Sequence of Vpr-derived peptide 1a, Vpr(69-75) (Q73369 whole entry, looked up): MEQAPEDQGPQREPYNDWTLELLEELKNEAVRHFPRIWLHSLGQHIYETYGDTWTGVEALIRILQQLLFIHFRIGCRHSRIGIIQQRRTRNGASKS
binder,measurement,setting,value
21T/21B duplex (HIV-1 viral DNA end substrate) (dsDNA) DNA 1: GTGTGGAAAATCTCTAGCAGT DNA 2: ACTGCTAGAGATTTTCCACAC,binding result,[1],no binding
same,binding result,[2],binds
